Assay results published in article PMC3314109.
pKd: −log10 of the molar value.

Target: the mutants of both surface loops (39-loop and 60-loop mutants of FXa)
Assay: prothrombinase activity titration

## factor Va (thrombin activated factor V) (from UniProt P12259 29-737; P12259 1574-2224) (complex)
  pKd: 8.70 to 9.00
